Test results as given in patent US20140271457A1 (AbbVie / Abbott, published 2014).

Target: Recombinant Human TNF-α/TNFSF1A (human, UniProt P01375 77-233)
Test: cell-based or functional assay

Recombinant Human TNF-α/TNFSF1A, sequence (P01375 77-233 limits assumed): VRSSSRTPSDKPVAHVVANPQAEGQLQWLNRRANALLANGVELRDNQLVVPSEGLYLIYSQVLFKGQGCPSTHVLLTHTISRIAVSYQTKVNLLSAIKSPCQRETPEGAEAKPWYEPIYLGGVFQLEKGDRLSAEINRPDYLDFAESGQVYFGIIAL

N-Terminal VD huTNFα Neutralization Assay IC50 [nM]	C-Terminal VD huTNFα Neutralization Assay IC50 [nM]	Binder
0.006	–	DVD2743 (bispecific antibody, IgG1) VH: EVQLVESGGGLVQPGGSLRLSCAASGFTFSNYGVEWVRQAPGKGLEWVSGIWADGSTHYADTVKSRFTISRDNSKNTLYLQMNSLRAEDTAVYYCAREWQHGPVAYWGQGTLVTVSSGGGGSGGGGSEVQLVQSGAEVKKPGASVKVSCKASGYTFTKYWLGWVRQAPGQGLEWMGDIYPGYDYTHYNEKFKDRVTLTTDTSTSTAYMELRSLRSDDTAVYYCARSDGSSTYWGQGTLVTVSS VL: DIQMTQSPSSLSASVGDRVTITCKASQLVSSAVAWYQQKPGKAPKLLIYWASTLHTGVPSRFSGSGSGTDFTLTISSLQPEDFATYYCQQHYRTPFTFGQGTKLEIKRGGSGGGGSGDVLMTQTPLSLPVTPGEPASISCTSSQNIVHSNGNTYLEWYLQKPGQSPQLLIYKVSNRFSGVPDRFSGSGSGTDFTLKISRVEAEDVGVYYCFQVSHVPYTFGGGTKVEIKR
0.003	–	DVD2744 (bispecific antibody, IgG1) VH: EVQLVESGGGLVQPGGSLRLSCAASGFTFSNYGVEWVRQAPGKGLEWVSGIWADGSTHYADTVKSRFTISRDNSKNTLYLQMNSLRAEDTAVYYCAREWQHGPVAYWGQGTLVTVSSASTKGPEVQLVQSGAEVKKPGASVKVSCKASGYTFTKYWLGWVRQAPGQGLEWMGDIYPGYDYTHYNEKFKDRVTLTTDTSTSTAYMELRSLRSDDTAVYYCARSDGSSTYWGQGTLVTVSS VL: DIQMTQSPSSLSASVGDRVTITCKASQLVSSAVAWYQQKPGKAPKLLIYWASTLHTGVPSRFSGSGSGTDFTLTISSLQPEDFATYYCQQHYRTPFTFGQGTKLEIKRTVAAPDVLMTQTPLSLPVTPGEPASISCTSSQNIVHSNGNTYLEWYLQKPGQSPQLLIYKVSNRFSGVPDRFSGSGSGTDFTLKISRVEAEDVGVYYCFQVSHVPYTFGGGTKVEIKR
0.006	–	DVD2746 (bispecific antibody, IgG1) VH: EVQLVESGGGLVQPGGSLRLSCAASGFTFSNYGVEWVRQAPGKGLEWVSGIWADGSTHYADTVKSRFTISRDNSKNTLYLQMNSLRAEDTAVYYCAREWQHGPVAYWGQGTLVTVSSASTKGPEVQLVQSGAEVKKPGASVKVSCKASGYTFTKYWLGWVRQAPGQGLEWMGDIYPGYDYTHYNEKFKDRVTLTTDTSTSTAYMELRSLRSDDTAVYYCARSDGSSTYWGQGTLVTVSS VL: DIQMTQSPSSLSASVGDRVTITCKASQLVSSAVAWYQQKPGKAPKLLIYWASTLHTGVPSRFSGSGSGTDFTLTISSLQPEDFATYYCQQHYRTPFTFGQGTKLEIKRTVAAPSVFIFPPDVLMTQTPLSLPVTPGEPASISCTSSQNIVHSNGNTYLEWYLQKPGQSPQLLIYKVSNRFSGVPDRFSGSGSGTDFTLKISRVEAEDVGVYYCFQVSHVPYTFGGGTKVEIKR
–	0.106	DVD2702 (bispecific antibody, IgG1) VH: EVQLVQSGAEVKKPGASVKVSCKASGYTFTKYWLGWVRQAPGQGLEWMGDIYPGYDYTHYNEKFKDRVTLTTDTSTSTAYMELRSLRSDDTAVYYCARSDGSSTYWGQGTLVTVSSASTKGPSVFPLAPEVQLVESGGGLVQPGGSLRLSCAASGFTFSNYGVTWVRQAPGKGLEWVSMIWADGSTHYASSVKGRFTISRDNSKNTLYLQMNSLRAEDTAVYYCAREWQHGPVAYWGQGTLVTVSS VL: DVLMTQTPLSLPVTPGEPASISCTSSQNIVHSNGNTYLEWYLQKPGQSPQLLIYKVSNRFSGVPDRFSGSGSGTDFTLKISRVEAEDVGVYYCFQVSHVPYTFGGGTKVEIKRTVAAPDIQMTQSPSSLSASVGDRVTITCRASQLVSSAVAWYQQKPGKAPKLLIYWASARHTGVPSRFSGSGSGTDFTLTISSLQPEDFATYYCQQHYKTPFTFGQGTKLEIKR
–	0.018	DVD3122 (bispecific antibody, IgG1) VH: EVQLVQSGAEVKKPGASVKVSCKASGYTFTTYGVSWVRQAPGQGLEWMGEIYPGNYNTYYNEKFRGRVTMTTDTSTSTAYMELRSLRSDDTAVYYCARWRTSYFSDYGYFDYWGQGTTVTVSSASTKGPSVFPLAPEVQLVQSGAEVKKPGASVKVSCKASGYTFNNYGIIWVRQAPGQGLEWMGWINTYTGKPTYAQKFQGRVTMTTDTSTSTAYMELSSLRSEDTAVYYCARKLFNTVAVTDNAMDYWGQGTTVTVSS VL: DVVMTQSPLSLPVTLGQPASISCRSSQSLVHSHGNTYLHWYQQRPGQSPRLLIYTVSNRFSGVPDRFSGSGSGTDFTLKISRVEAEDVGVYYCSQSTHVPYTFGGGTKVEIKRTVAAPDIQMTQSPSSLSASVGDRVTITCRASQDIENYLNWYQQKPGKAPKLLIYYTSRLQSGVPSRFSGSGSGTDFTLTISSLQPEDFATYFCQQGNTQPPTFGQGTKLEIKR
0.018	–	DVD3167 (bispecific antibody, IgG1) VH: EVQLVQSGAEVKKPGASVKVSCKASGYTFANYGIIWVRQAPGQGLEWMGWINTYTGKPTYAQKFQGRVTMTTDTSTSTAYMELSSLRSEDTAVYYCARKLFTTMDVTDNAMDYWGQGTTVTVSSASTKGPSVFPLAPEVQLVQSGAEVKKPGASVKVSCKASGYTFTSYWMHWVRQAPGQGLEWIGNINPKGGSNIYNEKFQGRVTMTRDTSISTAYMELSRLRSDDTAVYYCARLDYFGDSFDLWGQGTTVTVSS VL: DIQMTQSPSSLSASVGDRVTITCRASQDISQYLNWYQQKPGKAPKLLIYYTSRLQSGVPSRFSGSGSGTDFTLTISSLQPEDFATYFCQQGNTWPPTFGQGTKLEIKRTVAAPDIQMTQSPSSLSASVGDRVTITCRASQGIRNYLNWYQQKPGKAPKLLIYYASNLEVGVPSRFSGSGSGTDYTLTISSLQPEDFATYYCQQDNRFPYTFGGGTKVEIKR
0.022	–	DVD3177 (bispecific antibody, IgG1) VH: EVQLVQSGAEVKKPGASVKVSCKASGYTFNNYGIIWVRQAPGQGLEWMGWINTYTGKPTYAQKFQGRVTMTTDTSTSTAYMELSSLRSEDTAVYYCARKLFNTVAVTDNAMDYWGQGTTVTVSSASTKGPSVFPLAPEVQLVQSGAEVKKPGASVKVSCKASGYTFTSYWMHWVRQAPGQGLEWIGNINPKGGSNIYNEKFQGRVTMTRDTSISTAYMELSRLRSDDTAVYYCARLDYFGDSFDLWGQGTTVTVSS VL: DIQMTQSPSSLSASVGDRVTITCRASQDIENYLNWYQQKPGKAPKLLIYYTSRLQSGVPSRFSGSGSGTDFTLTISSLQPEDFATYFCQQGNTQPPTFGQGTKLEIKRTVAAPDIQMTQSPSSLSASVGDRVTITCRASQGIRNYLNWYQQKPGKAPKLLIYYASNLEVGVPSRFSGSGSGTDYTLTISSLQPEDFATYYCQQDNRFPYTFGGGTKVEIKR

Second part, the binder before the results:

Binder	N-Terminal VD huTNFα Neutralization Assay IC50 [nM]	C-Terminal VD huTNFα Neutralization Assay IC50 [nM]
DVD2693 (bispecific antibody, IgG1) VH: EVQLVESGGGLVQPGGSLRLSCAASGFTFSNYGVTWVRQAPGKGLEWVSMIWADGSTHYASSVKGRFTISRDNSKNTLYLQMNSLRAEDTAVYYCAREWQHGPVAYWGQGTLVTVSSGGGGSGGGGSEVQLVQSGAEVKKPGASVKVSCKASGYTFTKYWLGWVRQAPGQGLEWMGDIYPGYDYTHYNEKFKDRVTLTTDTSTSTAYMELRSLRSDDTAVYYCARSDGSSTYWGQGTLVTVSS VL: DIQMTQSPSSLSASVGDRVTITCRASQLVSSAVAWYQQKPGKAPKLLIYWASARHTGVPSRFSGSGSGTDFTLTISSLQPEDFATYYCQQHYKTPFTFGQGTKLEIKRGGSGGGGSGDVLMTQTPLSLPVTPGEPASISCTSSQNIVHSNGNTYLEWYLQKPGQSPQLLIYKVSNRFSGVPDRFSGSGSGTDFTLKISRVEAEDVGVYYCFQVSHVPYTFGGGTKVEIKR	0.001	–
DVD2694 (bispecific antibody, IgG1) VH: EVQLVESGGGLVQPGGSLRLSCAASGFTFSNYGVTWVRQAPGKGLEWVSMIWADGSTHYASSVKGRFTISRDNSKNTLYLQMNSLRAEDTAVYYCAREWQHGPVAYWGQGTLVTVSSASTKGPEVQLVQSGAEVKKPGASVKVSCKASGYTFTKYWLGWVRQAPGQGLEWMGDIYPGYDYTHYNEKFKDRVTLTTDTSTSTAYMELRSLRSDDTAVYYCARSDGSSTYWGQGTLVTVSS VL: DIQMTQSPSSLSASVGDRVTITCRASQLVSSAVAWYQQKPGKAPKLLIYWASARHTGVPSRFSGSGSGTDFTLTISSLQPEDFATYYCQQHYKTPFTFGQGTKLEIKRTVAAPDVLMTQTPLSLPVTPGEPASISCTSSQNIVHSNGNTYLEWYLQKPGQSPQLLIYKVSNRFSGVPDRFSGSGSGTDFTLKISRVEAEDVGVYYCFQVSHVPYTFGGGTKVEIKR	0.001	–
DVD2699 (bispecific antibody, IgG1) VH: EVQLVQSGAEVKKPGASVKVSCKASGYTFTKYWLGWVRQAPGQGLEWMGDIYPGYDYTHYNEKFKDRVTLTTDTSTSTAYMELRSLRSDDTAVYYCARSDGSSTYWGQGTLVTVSSASTKGPEVQLVESGGGLVQPGGSLRLSCAASGFTFSNYGVTWVRQAPGKGLEWVSMIWADGSTHYASSVKGRFTISRDNSKNTLYLQMNSLRAEDTAVYYCAREWQHGPVAYWGQGTLVTVSS VL: DVLMTQTPLSLPVTPGEPASISCTSSQNIVHSNGNTYLEWYLQKPGQSPQLLIYKVSNRFSGVPDRFSGSGSGTDFTLKISRVEAEDVGVYYCFQVSHVPYTFGGGTKVEIKRTVAAPDIQMTQSPSSLSASVGDRVTITCRASQLVSSAVAWYQQKPGKAPKLLIYWASARHTGVPSRFSGSGSGTDFTLTISSLQPEDFATYYCQQHYKTPFTFGQGTKLEIKR	–	0.064
DVD2701 (bispecific antibody, IgG1) VH: EVQLVQSGAEVKKPGASVKVSCKASGYTFTKYWLGWVRQAPGQGLEWMGDIYPGYDYTHYNEKFKDRVTLTTDTSTSTAYMELRSLRSDDTAVYYCARSDGSSTYWGQGTLVTVSSASTKGPEVQLVESGGGLVQPGGSLRLSCAASGFTFSNYGVTWVRQAPGKGLEWVSMIWADGSTHYASSVKGRFTISRDNSKNTLYLQMNSLRAEDTAVYYCAREWQHGPVAYWGQGTLVTVSS VL: DVLMTQTPLSLPVTPGEPASISCTSSQNIVHSNGNTYLEWYLQKPGQSPQLLIYKVSNRFSGVPDRFSGSGSGTDFTLKISRVEAEDVGVYYCFQVSHVPYTFGGGTKVEIKRTVAAPSVFIFPPDIQMTQSPSSLSASVGDRVTITCRASQLVSSAVAWYQQKPGKAPKLLIYWASARHTGVPSRFSGSGSGTDFTLTISSLQPEDFATYYCQQHYKTPFTFGQGTKLEIKR	–	0.036
DVD2698 (bispecific antibody, IgG1) VH: EVQLVQSGAEVKKPGASVKVSCKASGYTFTKYWLGWVRQAPGQGLEWMGDIYPGYDYTHYNEKFKDRVTLTTDTSTSTAYMELRSLRSDDTAVYYCARSDGSSTYWGQGTLVTVSSGGGGSGGGGSEVQLVESGGGLVQPGGSLRLSCAASGFTFSNYGVTWVRQAPGKGLEWVSMIWADGSTHYASSVKGRFTISRDNSKNTLYLQMNSLRAEDTAVYYCAREWQHGPVAYWGQGTLVTVSS VL: DVLMTQTPLSLPVTPGEPASISCTSSQNIVHSNGNTYLEWYLQKPGQSPQLLIYKVSNRFSGVPDRFSGSGSGTDFTLKISRVEAEDVGVYYCFQVSHVPYTFGGGTKVEIKRGGSGGGGSGDIQMTQSPSSLSASVGDRVTITCRASQLVSSAVAWYQQKPGKAPKLLIYWASARHTGVPSRFSGSGSGTDFTLTISSLQPEDFATYYCQQHYKTPFTFGQGTKLEIKR	–	0.085
